From patent US20210355194A1 (TWIST BIOSCIENCE, published 2021)

What was measured:
[1] = molecular target: T1, Acro SARS-CoV-2 (COVID-19) S1 protein (SARS-CoV-2, UniProt P0DTC2 16-685); experiment: SPR
T1 construct: also called SARS-CoV-2 S1

[2] = molecular target: SARS-CoV-2 spike on live SARS-CoV-2 virus (SARS-CoV-2, UniProt P0DTC2 14-1273); experiment: cell-based or functional assay
[3] = molecular target: SARS-CoV-2 membrane protein on expressing cells (SARS-CoV-2, UniProt P0DTC5 1-222)
[4] = molecular target: T2, COVID S1 RBD Fc fusion (Antigen 1) (SARS-CoV-2, UniProt P0DTC2 319-541); experiment: phage ELISA
T2 construct: domain: S1 RBD

[5] = molecular target: T3, COVID S1 RBM Fc fusion (Antigen 2) (SARS-CoV-2, UniProt P0DTC2 437-508); experiment: phage ELISA
T3 construct: domain: S1 RBM

B1: variant 6-13 (Fc fusion)
VHH: EVQLVESGGGLVQPGGSLRLSCAASGLTFNDYAMGWFRQAPGKEREFVAHIPRSTYSPYYADSVKGRFTISADNSKNTAYLQMNSLKPEDTAVYYCAFLVGPQGVDHGAFDVWGQGTLVTVSS
[1]
  Kd: 25.3 nM
[2]
  EC80: 25.7 µg/mL

B2: variant 5-8 (Fc fusion)
VHH: EVQLVESGGGLVQPGGSLRLSCAASGRPFSEYTMGWFRQAPGKEREFVSSIHWGGRGTNYADSVKGRFTISADNSKNTAYLQMNSLKPEDTAVYYCAAELHSSDYTSPGAYAWGQGTLVTVSS
[2]
  EC80: 15.8 µg/mL

B3: 10-2 (VHH)
VHH: EVQLVESGGGLVQPGGSLRLSCAASGGTFSSYSMGWFRQAPGKEREFVSAISWIIGSGGTTNYADSVKGRFTISADNSKNTAYLQMNSLKPEDTAVYYCTAGAGDSWGQGTLVTVSS
[3]
  MFI Ratio: 1.25

B4: 9-2 (VHH)
VHH: EVQLVESGGGLVQPGGSLRLSCAASGSFSIAAMGWFRQAPGKEREFVATINYSGGGTYYADSVKGRFTISADNSKNTAYLQMNSLKPEDTAVYYCAAVNTFDESAYAAFACYDVVWGQGTLVTVSS
[3]
  MFI Ratio: 1.3

B5: variant 6-42 (Fc fusion)
VHH: EVQLVESGGGLVQPGGSLRLSCAASGDTYGSYWMGWFRQAPGKEREFVAVITSGGSTNYADSVKGRFTISADNSKNTAYLQMNSLKPEDTAVYYCTHVQNSYYYAMDVWGQGTLVTVSS
[1]
  Kd: 10.1 nM
[2]
  EC80: 0.734 µg/mL

B6: variant 2-1 (antibody, V domains shown)
VH: EVQLLESGGGLVQPGGSLRLSCAASGFTFSNYATDWVRQAPGKGLEWVSIISGSGGATYYADSVKGRFTISRDNSKNTLYLQMNSLRAEDTAVYYCAKGGYCSSDTCWWEYWLDPWGQGTLVTVSS
VL: DIQMTQSPSSLSASVGDRVTITCRASQSIHRFLNWYQQKPGKAPKLLIYAASNLHSGVPSRFSGSGSGTDFTLTISSLQPEDFATYYCQQSYGLPPTFGQGTKVEIK
[4]
  specificity ELISA, fold over background: 36.8 fold over background
  specificity ELISA, percent binding relative to Acro S1: 93.7%
[5]
  specificity ELISA, fold over background: 1.5 fold over background
  specificity ELISA, percent binding relative to Acro S1: 3.9%

B7: 10-6 (VHH)
VHH: EVQLVESGGGLVQPGGSLRLSCAASGTTLTFRIMGWFRQAPGKEREFVPAISSTGLASYTDSVKGRFTISADNSKNTAYLQMNSLKPEDTAVYYCSKDRAPNCFACCPNGFDVWGQGTLVTVSS
[3]
  MFI Ratio: 1.08

B8: variant 5-32 (Fc fusion)
VHH: EVQLVESGGGLVQPGGSLRLSCAASGFTPDNYAMGWFRQAPGKEREFVAALGWSGVTTYHYYADSVKGRFTISADNSKNTAYLQMNSLKPEDTAVYYCASDESDAANWGQGTLVTVSS
[1]
  Kd: 22.4 nM
[2]
  EC80: 180 µg/mL

B9: variant 6-32 (Fc fusion)
VHH: EVQLVESGGGLVQPGGSLRLSCAASGFTLDYYDMGWFRQAPGKEREFVALISWSGGSTYYADSVKGRFTISADNSKNTAYLQMNSLKPEDTAVYYCATDFYGWGTRERDAFDIWGQGTLVTVSS
[1]
  Kd: 27.2 nM
[2]
  EC80: 60.6 µg/mL

B10: variant 5-51 (Fc fusion)
VHH: EVQLVESGGGLVQPGGSLRLSCAASGRPNSINWMGWFRQAPGKERQFVATITPGGNTNYADSVKGRFTISADNSKNTAYLLMNSLKPEDTAVYYCAAAAGTTWYGTLYEYDWGQGTLVTVSS
[1]
  Kd: 25.5 nM
[2]
  EC80: 388 µg/mL

B11: variant 5-63 (Fc fusion)
VHH: EVQLVESGGGLVQPGGSLRLSCAASGFSLDYYDMGWFRQAPGKEREFVAALGWSGGSTDYADSVKGRFTISADNSKNTAYLQMNSLKPEDTAVYYCAAGNGGRYGIVERWGQGTLVTVSS
[1]
  Kd: 10.5 nM
[2]
  EC80: 14.2 µg/mL

B12: 10-44 (VHH)
VHH: EVQLVESGGGLVQPGGSLRLSCAASGRTFRRYTMGWFRQAPGKEREFVAVISWSGGSTKYADSVKGRFTISADNSKNTAYLQMNSLKPEDTAVYYCARKGRWSGMNVWGQGTLVTVSS
[3]
  MFI Ratio: 1.46

B13: variant 6-22 (Fc fusion)
VHH: EVQLVESGGGLVQPGGSLRLSCAASGRTFSEVVMGWFRQAPGKEREFVATIHSSGSTSYADSVKGRFTISADNSKNTAYLQMNSLKPEDTAVYYCVRVTSDYSMDSWGQGTLVTVSS
[1]
  Kd: 25.6 nM
[2]
  EC80: 103 µg/mL

B14: 10-19 (VHH)
VHH: EVQLVESGGGLVQPGGSLRLSCAASGRTFRSYGMGWFRQAPGKEREFVASISRSGTTMYADSVKGRFTISADNSKNTAYLQMNSLKPEDTAVYYCARRGLLQWFGAPNSWFDPWGQGTLVTVSS
[3]
  MFI Ratio: 1.54

B15: 10-60 (VHH)
VHH: EVQLVESGGGLVQPGGSLRLSCAASGIPASMYLGWFRQAPGKEREFVAAITSGGRTSYADSVKGRFTISADNSKNTAYLQMNSLKPEDTAVYYCAKRKKRGPLWFGGGGWGYWGQGTLVTVSS
[3]
  MFI Ratio: 1.14

B16: 9-10 (VHH)
VHH: EVQLVESGGGLVQPGGSLRLSCAASGRMFSSRSMGWFRQAPGKEREFVALINRSGGSQFYADSVKGRFTISADNSKNTAYLQMNSLKPEDTAVYYCAARRWIPPGPIWGQGTLVTVSS
[3]
  MFI Ratio: 1.52

B17: variant 5-38 (Fc fusion)
VHH: EVQLVESGGGLVQPGGSLRLSCAASGRTFSMHAMGWFRQAPGKERELVASISSQGRTNYADSVKGRFTISADNSKNTAYLQMNSLKPEDTAVYYCAAEVRNGSDYLPIDWGQGTLVTVSS
[2]
  EC80: 1.5 µg/mL

B18: variant 6-91 (Fc fusion)
VHH: EVQLVESGGGLVQPGGSLRLSCAASGRTFGNYAMGWFRQAPGKEREFVASISSSGVSKHYADSVKGRFTISADNSKNTAYLQMNSLKPEDTAVYYCVRFGSSWARDLDQWGQGTLVTVSS
[2]
  EC80: 240 µg/mL

B19: variant 6-24 (Fc fusion)
VHH: EVQLVESGGGLVQPGGSLRLSCAASGFTLDYYAMGWFRQAPGKEREFVAAINWSGDNTHYADSVKGRFTISADNSKNTAYLQMNSLKPEDTAVYYCARAPFYCTTTKCQDNYYYMDVWGQGTLVTVSS
[1]
  Kd: 29.9 nM
[2]
  EC80: 31.4 µg/mL

B20: variant 3-10 (antibody, V domains shown)
VH: EVQLLESGGGLVQPGGSLRLSCAASGFTFRSHAMSWVRQAPGKGLEWVSSISGGGASTYYADSVKGRFTISRDNSKNTLYLQMNSLRAEDTAVYYCARVKYLTTSSGWPRPYFDNWGQGTLVTVSS
VL: DIQMTQSPSSLSASVGDRVTITCRASQSIRKYLNWYQQKPGKAPKLLIYASSTLQRGVPSRFSGSGSGTDFTLTISSLQPEDFATYYCQQSLSTPFTFGGGTKVEIK
[4]
  specificity ELISA, fold over background: 1.2 fold over background
  specificity ELISA, percent binding relative to Acro S1: 97.2%
[5]
  specificity ELISA, fold over background: 1.1 fold over background
  specificity ELISA, percent binding relative to Acro S1: 93.3%

B21: variant 6-82 (Fc fusion)
VHH: EVQLVESGGGLVQPGGSLRLSCAASGSSLDAYGMGWFRQAPGKEREFVAAISWGGGSIYYADSVKGRFTISADNSKNTAYLQMNSLKPEDTAVYYCARLSQGMVALDYWGQGTLVTVSS
[1]
  Kd: 7.1 nM
[2]
  EC80: 108 µg/mL

B22: variant 2-9 (antibody, V domains shown)
VH: EVQLLESGGGLVQPGGSLRLSCAASGFTFPRYAMSWVRQAPGKGLEWVSTISGSGSTTYYADSVKGRFTISRDNSKNTLYLQMNSLRAEDTAVYYCARLIDAFDIWGQGTLVTVSS
VL: DIQMTQSPSSLSASVGDRVTITCRASQRIGTYLNWYQQKPGKAPKLLIYAASNLEGGVPSRFSGSGSGTDFTLTISSLQPEDFATYYCQQNYSTTWTFGQGTKVEIK
[4]
  specificity ELISA, fold over background: 24.3 fold over background
  specificity ELISA, percent binding relative to Acro S1: 101%
[5]
  specificity ELISA, fold over background: 0.8 fold over background
  specificity ELISA, percent binding relative to Acro S1: 3.5%

B23: variant 6-6 (Fc fusion)
VHH: EVQLVESGGGLVQPGGSLRLSCAASGTTLDYYAMGWFRQAPGKERELVAAISWSGGSTAYADSVKGRFTISADNSKNTAYLQMNSLKPEDTAVYYCAREDYYDSSGYSWGQGTLVTVSS
[1]
  Kd: 6.4 nM
[2]
  EC80: 24.4 µg/mL

B24: 9-6 (VHH)
VHH: EVQLVESGGGLVQPGGSLRLSCAASGRTFSRFAMGWFRQAPGKEREFVAAIRWSGGRTVYADSVKGRFTISADNSKNTAYLQMNSLKPEDTAVYYCAIEPGTIRNWRNRVPFARGNFGWGQGTLVTVSS
[3]
  MFI Ratio: 1.47

B25: 10-1 (VHH)
VHH: EVQLVESGGGLVQPGGSLRLSCAASGLSSPPFDDFPMGWFRQAPGKEREFVSSIYSDDGDSMYADSVKGRFTISADNSKNTAYLQMNSLKPEDTAVYYCARQTFDFWSASLGGNFWYFDLWGQGTLVTVSS
[3]
  MFI Ratio: 1.08

B26: 10-29 (VHH)
VHH: EVQLVESGGGLVQPGGSLRLSCAASGRTFTSYRMGWFRQAPGKEREFVAEISSSGGYTYYADSVKGRFTISADNSKNTAYLQMNSLKPEDTAVYYCARVGPLRFLAQRPRLRPDYWGQGTLVTVSS
[3]
  MFI Ratio: 1.48

B27: 10-51 (VHH)
VHH: EVQLVESGGGLVQPGGSLRLSCAASGRFFSTRVMGWFRQAPGKEREFVARIWPGGSTYYADSVKGRFTISADNSKNTAYLQMNSLKPEDTAVYYCARDRGIFGVSRWGQGTLVTVSS
[3]
  MFI Ratio: 1.47

B28: 10-56 (VHH)
VHH: EVQLVESGGGLVQPGGSLRLSCAASGHTFRNYGMGWFRQAPGKEREFVAAITSSGSTNYADSVKGRFTISADNSKNTAYLQMNSLKPEDTAVYYCATVPPPRRFLEWLPRRLTYTWGQGTLVTVSS
[3]
  MFI Ratio: 1.39
